Assay results from patent US20100087005A1, “AUXILIARY REAGENT FOR GENE TRANSFER” (priority 2006, published 2010).

System: transgenic mice overexpressing full-length Del-1
Assay: In vivo gene transfer of human thermostable alkaline phosphatase gene (TransIT In Vivo Gene Delivery System) in Del-1 transgenic mice, serum AP activity
Parameters: species or system mouse
Conditions: tail vein injection of human thermostable alkaline phosphatase gene, serum 24 hours later, heat treated 65° C. 30 minutes, FIG. 5
Procedure: According to the ordinary method, transgenic mice in which cDNA of full-length Del-1 (i.e., DNA consisting of the nucleotide sequence represented by SEQ ID NO: 9) is overexpressed were prepared (see Hidai et al., Anatomical Record A, vol. 287A, pp. 1165-1175). Del-1 protein produced in cells of the transgenic mice is a protein having the amino acid sequence represented by SEQ ID NO: 10 (including the signal peptide). Del-1 protein secreted from the cells to the outside thereof is a protein having an amino acid sequence consisting of amino acid residues at positions 26 to 480 in the amino acid sequence represented by SEQ ID NO: 10 (excluding the signal peptide). […] Using 20 μl of serum after the heat treatment, the activity of exogenous alkaline phosphatase (human thermostable alkaline phosphatase) was measured. In the measurement of the activity, 20 μl of serum was mixed with 200 μl of 1 mg/ml p-nitrophenyl phosphate, and after causing reaction at room temperature for 30 minutes to 1 hour, the absorbance at 405 nm was measured using a […] (BioRad). […]
Measurement values of the alkaline phosphatase activity are expressed by average value±SEM (standard error of the mean). The measurement values obtained from the control group into which alkaline phosphatase gene was not injected are regarded as 1, and the measurement values of the transgenic mice were calculated based thereon.

B1: full-length Del-1: Del-1 protein, SEQ ID NO: 10, overexpressed in transgenic mice; secreted form residues 26 to 480 (protein, listed as Mus musculus)
chain: MKHLVAAWLLVGLSLGVPQFGKGDICNPNPCENGGICLSGLADDSFSCECPEGFAGPNCSSVVEVASDEEKPTSAGPCIPNPCHNGGTCEISEAYRGDTFIGYVCKCPRGFNGIHCQHNINECEAEPCRNGGICTDLVANYSCECPGEFMGRNCQYKCSGPLGIEGGIISNQQITASSTHRALFGLRKWYPYYARLNKKGLINAWTAAENDRWPWIQINLQRKMRVTGVITQGAKRIGSPEYIKSYKIAYSNDGKTWAMYKVKGTNEEMVFRGNVDNNTPYANSFTPPIKAQYVRLYPQICRRHCTLRMELLGCELSGCSEPLGMKSGHIQDYQITASSVFRTLNMDMFTWEPRKARLDKQGKVNAWTSGHNDQSQWLQVDLLVPTKVTGIITQGAKDFGHVQFVGSYKLAYSNDGEHWMVHQDEKQRKDKVFQGNFDNDTHRKNVIDPPIYARFIRILPWSWYGRITLRSELLGCAEEE
  exogenous alkaline phosphatase activity in serum, transgenic mouse (TG) vs wild-type mouse (WT): about twice as high as that of the wild-type mouse (WT)
